{
  "source": "paper PMC11878559",
  "target": "StbD antitoxin of plasmid pHNSHP45 (p45), untagged (plasmid pHNSHP45 (p45), studied in E. coli)",
  "test": "tricine-SDS-PAGE of the purified StbDE complex",
  "data": [
    {"substance": "StbD antitoxin of plasmid pHNSHP45 (p45), untagged (natural protein)", "values": [
      {"measurement": "stoichiometry N", "value": 2}
    ]}
  ]
}
